Patent publication US20090215991A1

How the values were obtained:
[1] = target: extracellular region of human V158 FcγRIIIa with C-terminal 6xHis-tag and GST-tag (human) (UniProt P08637); assay: SPR
[2] = target: FcγRIIIa on human PBMCs expressing heterozygous V158/F158 FcγRIIIa (human) (UniProt P08637); assay: cell-based or functional assay
Sequence of FcγRIIIa on human PBMCs expressing heterozygous V158/F158 FcγRIIIa (human) (P08637 17-254): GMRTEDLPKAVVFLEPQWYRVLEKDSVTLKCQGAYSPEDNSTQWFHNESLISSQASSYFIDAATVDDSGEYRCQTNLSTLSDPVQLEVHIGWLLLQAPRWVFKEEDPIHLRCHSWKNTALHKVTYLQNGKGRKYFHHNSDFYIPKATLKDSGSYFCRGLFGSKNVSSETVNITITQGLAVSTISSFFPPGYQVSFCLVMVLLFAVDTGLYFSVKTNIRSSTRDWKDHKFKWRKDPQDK

Sequence of extracellular region of human V158 FcγRIIIa with C-terminal 6xHis-tag and GST-tag (human) (P08637 17-208 F176V): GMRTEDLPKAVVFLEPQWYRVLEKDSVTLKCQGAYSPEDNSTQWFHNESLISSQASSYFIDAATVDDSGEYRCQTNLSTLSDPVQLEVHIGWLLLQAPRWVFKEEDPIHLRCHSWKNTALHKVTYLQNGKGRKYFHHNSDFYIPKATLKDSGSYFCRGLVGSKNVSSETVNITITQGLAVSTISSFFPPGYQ

Row | Substance | Fold WT [1] [fold] | ADCC log(EC50), DoHH-2 target cells [2]
1 | E283H alemtuzumab (antibody) | 2.31 | 
2 | V284E alemtuzumab (antibody) | 1.51 | 
3 | V264I/I332E alemtuzumab (antibody) |  | 0.6 log(ng/ml)
4 | E272R alemtuzumab (antibody) | 1.38 | 
5 | S304T alemtuzumab (antibody) | 12.8 | 
6 | S239D/I332E alemtuzumab (antibody) |  | 0.49 log(ng/ml)
